From patent US20020049180A1

Target: GST-fusion protein containing amino acids 327-517 of KIAA0175 (human) (UniProt Q14680)
Test: cell-based or functional assay

Work on “Ataxia telangiectasia mutated (ATM) (from UniProt Q13315 2-3056) (enzyme)” yielded an increase of phosphorylation by ATM immunoprecipitated from gamma-irradiated cells of 2 to 3 fold.
